B1: Dynamin-1 (Homo sapiens), Q05193-5 (parent)
chain: MGNRGMEDLIPLVNRLQDAFSAIGQNADLDLPQIAVVGGQSAGKSSVLENFVGRDFLPRGSGIVTRRPLVLQLVNATTEYAEFLHCKGKKFTDFEEVRLEIEAETDRVTGTNKGISPVPINLRVYSPHVLNLTLVDLPGMTKVPVGDQPPDIEFQIRDMLMQFVTKENCLILAVSPANSDLANSDALKVAKEVDPQGQRTIGVITKLDLMDEGTDARDVLENKLLPLRRGYIGVVNRSQKDIDGKKDITAALAAERKFFLSHPSYRHLADRMGTPYLQKVLNQQLTNHIRDTLPGLRNKLQSQLLSIEKEVEEYKNFRPDDPARKTKALLQMVQQFAVDFEKRIEGSGDQIDTYELSGGARINRIFHERFPFELVKMEFDEKELRREISYAIKNIHGIRTGLFTPDLAFEATVKKQVQKLKEPSIKCVDMVVSELTATIRKCSEKLQQYPRLREEMERIVTTHIREREGRTKEQVMLLIDIELAYMNTNHEDFIGFANAQQRSNQMNKKKTSGNQDEILVIRKGWLTINNIGIMKGGSKEYWFVLTAENLSWYKDDEEKEKKYMLSVDNLKLRDVEKGFMSSKHIFALFNTEQRNVYKDYRQLELACETQEEVDSWKASFLRAGVYPERVGDKEKASETEENGSDSFMHSMDPQLERQVETIRNLVDSYMAIVNKTVRDLMPKTIMHLMINNTKEFIFSELLANLYSCGDQNTLMEESAEQAQRRDEMLRMYHALKEALSIIGDINTTTVSTPMPPPVDDSWLQVQSVPAGRRSPTSSPTPQRRAPAVPPARPGSRGPAPGPPPAGSALGGAPPVPSRPGASPDPFGPPPQVPSRPNRAPPGVPRITISDP

Variants of: B1
Details: with acts_rabit ACTA1, P68135

| Variant | effect of a mutation on the interaction |
| --- | --- |
| K419E | decreasing interaction |
| K426E | decreasing interaction |
| K414E | decreasing interaction |
| K415E | decreasing interaction |
| K421E | decreasing interaction |

Variants of: B1
Details: with acts_rabit ACTA1, P68135
Remark: another data set of the same source

| Variant | effect of a mutation on the interaction |
| --- | --- |
| K419A | decreasing interaction |
| K426A | decreasing interaction |
| K414A | decreasing interaction |
| K415A | decreasing interaction |
| K421A | decreasing interaction |

Variants of: B1
Details: with acts_rabit ACTA1, P68135
Remark: another data set of the same source

| Variant | effect of a mutation on the interaction |
| --- | --- |
| E434K | increasing interaction |

— IntAct's records for PubMed 20935625
